Data taken from US20110212528A1.

Target: GAL4/CfEcR-DEF (Choristoneura fumiferana)
Experiment: cell-based or functional assay

Substance: VP16/HsRXRβ-EF substitution mutant A495S (receptor)
- fold induction (maximum, reporter gene transactivation, NIH3T3 cells, GS-E): 30 fold

Substance: VP16/HsRXRβ-EF substitution mutant A528S (receptor)
- fold induction (maximum, reporter gene transactivation, NIH3T3 cells, GS-E): 21 fold
